Patent US20160046707A1 (EISAI R AND D MANAGEMENT, published 2016)

Tests used:
Experiment in all cases: ELISA, plate-bound chemokine (1 ug/ml), antibody 10 ug/ml, OD450
[1] = molecular target: T1, recombinant human CCL27 (human, UniProt Q9Y4X3 25-112)
T1 construct: also called CTACK
T1 sequence (looked up): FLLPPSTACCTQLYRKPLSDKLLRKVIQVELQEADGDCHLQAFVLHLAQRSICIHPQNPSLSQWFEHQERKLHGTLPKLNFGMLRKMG
Procedure: (§1) The wells of a 96-well plate were coated with 1 μg/ml of the recombinant human chemokines in PBS (−). After overnight incubation at 4° C., the wells were blocked with 1× Block-Ace (Dainippon Sumitomo Pharma, UK-B80) for 1 hour at room temperature. After washing twice with 0.02% Tween 20/PBS (−), we added 50 μl of 10 μg/ml purified 36F7C10, chimeric 36F710, HC2/LK3, or HC2/LC3 in 0.02% Tween 20/PBS (−) to each well. The wells were incubated for 1 hour at room temperature and washed three times as described in Example 3. […] After washing five times, a TMBZ (3,3′,5,5′-tetramethylbenzidine) solution (1%, in N,N-Dimethylformamide) was added to the wells and incubated for 15-30 minutes. The reaction was stopped by adding an equal volume of a 2 M H₂SO₄ stopping solution, and the optical density was read at 450 nm by ARVO (PerkinElmer).

[2] = molecular target: T2, recombinant human CXCL16 (human, UniProt Q9H2A7 30-118, limits assumed)
T2 sequence (looked up): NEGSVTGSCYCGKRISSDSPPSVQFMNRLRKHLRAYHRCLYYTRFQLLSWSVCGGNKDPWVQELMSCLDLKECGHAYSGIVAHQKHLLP
Procedure: as §1

[3] = molecular target: T3, recombinant human CXCL1 (human, UniProt P09341 35-107)
T3 construct: also called GROα
T3 sequence (looked up): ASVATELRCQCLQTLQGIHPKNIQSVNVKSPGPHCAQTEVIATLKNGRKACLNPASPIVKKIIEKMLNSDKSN
Procedure: as §1

[4] = molecular target: T4, recombinant human CCL5 (human, UniProt P13501 24-91)
T4 construct: also called Rantes
T4 sequence (looked up): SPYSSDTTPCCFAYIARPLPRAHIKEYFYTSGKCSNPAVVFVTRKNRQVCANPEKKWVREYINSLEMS
Procedure: as §1

[5] = molecular target: T5, recombinant human CCL7 (human, UniProt P80098 24-99)
T5 construct: also called MARC
Procedure: as §1

[6] = molecular target: T6, recombinant human CCL17 (human, UniProt Q92583 24-94)
T6 construct: also called TARC
T6 sequence (looked up): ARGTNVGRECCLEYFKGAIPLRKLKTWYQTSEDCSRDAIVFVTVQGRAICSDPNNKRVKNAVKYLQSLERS
Procedure: as §1

[7] = molecular target: T7, recombinant human CXCL2 (human, UniProt P19875 35-107)
T7 construct: also called GROβ
T7 sequence (looked up): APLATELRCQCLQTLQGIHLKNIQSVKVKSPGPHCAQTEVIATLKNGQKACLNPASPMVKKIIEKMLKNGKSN
Procedure: as §1

[8] = molecular target: T8, recombinant human CXCL8 (human, UniProt P10145 28-99)
T8 construct: also called IL-8
T8 sequence (looked up): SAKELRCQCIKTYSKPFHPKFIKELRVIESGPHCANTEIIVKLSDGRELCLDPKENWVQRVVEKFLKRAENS
Procedure: as §1

[9] = molecular target: T9, recombinant human XCL1 (human, UniProt P47992 23-114, limits assumed)
T9 construct: also called Ltn
T9 sequence (looked up): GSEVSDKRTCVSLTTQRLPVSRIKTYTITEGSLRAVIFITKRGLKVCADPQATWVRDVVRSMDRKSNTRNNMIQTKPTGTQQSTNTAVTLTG
Procedure: as §1

[10] = molecular target: T10, recombinant human CCL4 (human, UniProt P13236 24-92)
T10 construct: also called MIP-1β
T10 sequence (looked up): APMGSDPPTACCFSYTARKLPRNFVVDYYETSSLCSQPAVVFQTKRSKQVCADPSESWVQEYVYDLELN
Procedure: as §1

[11] = molecular target: T11, recombinant human CX3CL1 (Extracellular Domain) (human, UniProt P78423 25-341)
T11 construct: extracellular domain; also called FKN
T11 sequence (looked up): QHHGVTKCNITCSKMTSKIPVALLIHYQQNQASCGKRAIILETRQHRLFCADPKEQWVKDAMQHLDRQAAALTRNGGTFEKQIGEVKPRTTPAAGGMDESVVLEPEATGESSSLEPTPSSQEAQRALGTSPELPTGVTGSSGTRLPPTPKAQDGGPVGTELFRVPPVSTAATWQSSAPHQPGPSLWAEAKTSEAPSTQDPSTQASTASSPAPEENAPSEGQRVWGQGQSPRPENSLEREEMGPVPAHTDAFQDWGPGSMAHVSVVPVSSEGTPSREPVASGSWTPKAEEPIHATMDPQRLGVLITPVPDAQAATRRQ
Procedure: as §1

[12] = molecular target: T12, recombinant human CCL1 (human, UniProt P22362 24-96, limits assumed)
T12 sequence (looked up): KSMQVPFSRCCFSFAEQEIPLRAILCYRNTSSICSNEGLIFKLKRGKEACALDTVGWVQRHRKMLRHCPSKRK
Procedure: as §1

[13] = molecular target: T13, recombinant human CXCL13 (human, UniProt O43927 23-109)
T13 construct: also called BCA-1/BLC
T13 sequence (looked up): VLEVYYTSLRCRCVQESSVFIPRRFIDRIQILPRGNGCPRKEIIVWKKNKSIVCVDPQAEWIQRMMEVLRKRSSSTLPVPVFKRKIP
Procedure: as §1

Measured: binding result

T5 sequence (P80098 24-99 limits assumed): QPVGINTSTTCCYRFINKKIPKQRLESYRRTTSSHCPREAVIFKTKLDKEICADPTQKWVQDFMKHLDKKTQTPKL

B1: mouse anti-human CCL20 monoclonal antibody 36F7C10 (antibody, V domains shown)
VH: QVQLQQPGAELVKPGASVKMSCKASGYTFTNYWMHWVKQRPGQGLEWIGVIDPSDSYTTYNQKFKGKATLTVDTSSSTAYMQLSSLTSEDSAVYYCTRGNYGVDYAMDYWGQGTSVTVSS
VL: DIQMTQSPASLSASVGETVTITCGASENIYGALNWYQRKQGKSPQLLIYGATNLADGMSSRFSGSGSGRQYSLKISSLHPDDVATYYCQNVLITPYTFGGGTKLEIK
notes: Mouse hybridoma antibody; also called MouseMAb; parental mouse clone 36F7C10
no binding (tested: 10 ug/ml): [1] | [2] | [3] | [4] | [5] | [6] | [7] | [8] | [9] | [10] | [11] | [12] | [13]

B2: chimeric 36F7C10 antibody (36F7C10-hFc) (antibody, V domains shown)
VH: QVQLQQPGAELVKPGASVKMSCKASGYTFTNYWMHWVKQRPGQGLEWIGVIDPSDSYTTYNQKFKGKATLTVDTSSSTAYMQLSSLTSEDSAVYYCTRGNYGVDYAMDYWGQGTSVTVSS
VL: DIQMTQSPASLSASVGETVTITCGASENIYGALNWYQRKQGKSPQLLIYGATNLADGMSSRFSGSGSGRQYSLKISSLHPDDVATYYCQNVLITPYTFGGGTKLEIK
notes: also called chimeric 36F710; Chimeric MAb
no binding (tested: 10 ug/ml): [1] | [2] | [3] | [4] | [5] | [6] | [7] | [8] | [9] | [10] | [11] | [12] | [13]

B3: humanized anti-human CCL20 antibody 36LK3/36HC2 (antibody, human IgG1, kappa, V domains shown)
VH: QVQLVQSGAEVKKPGASVKVSCKASGYTFTNYWMHWVRQAPGQGLEWMGVIDPSDSYTTYAQKFQGRVTMTVDTSTSTVYMELSSLRSEDTAVYYCARGNYGVDYAMDYWGQGTLVTVSS
VL: DIQMTQSPSSLSASVGDRVTITCGASENIYGALNWYQRKPGKAPKLLIYGATNLADGVPSRFSGSGSGRDYTLTISSLQPEDFATYYCQNVLITPYTFGQGTKLEIKR
notes: expressed in HEK293 cells; also called HC2/LK3; HC2LK3
no binding (tested: 10 ug/ml): [1] | [2] | [3] | [4] | [5] | [6] | [7] | [8] | [9] | [10] | [11] | [12] | [13]

B4: humanized anti-human CCL20 antibody 36LC3/36HC2 (antibody, human IgG1, kappa, V domains shown)
VH: QVQLVQSGAEVKKPGASVKVSCKASGYTFTNYWMHWVRQAPGQGLEWMGVIDPSDSYTTYAQKFQGRVTMTVDTSTSTVYMELSSLRSEDTAVYYCARGNYGVDYAMDYWGQGTLVTVSS
VL: DIQMTQSPSSLSASVGDRVTITCRASENIYGALNWYQQKPGKAPKLLIYGATNLADGVPSRFSGSGSGRQYSLTISSLQPEDFATYYCQNVLITPYTFGGGTKLEIKR
notes: expressed in HEK293 cells; also called HC2/LC3; HC2LC3
no binding (tested: 10 ug/ml): [1] | [2] | [3] | [4] | [5] | [6] | [7] | [8] | [9] | [10] | [11] | [12] | [13]
